Positions count from the first letter of the chain named. Numbers in names are those of the source.
B1: IL-12(E59A/F60A)/IL-2(L18R/Q22E/R38D/K43E/E61R/Q126T/S130R)/CD155-Fc (Fc fusion)
chain 1: WPPPGTGDVVVQAPTQVPGFLGDSVTLPCYLQVPNMEVTHVSQLTWARHGESGSMAVFHQTQGPSYSESKRLEFVAARLGAELRNASLRMFGLRVEDEGNYTCLFVTFPQGSRSVDIWLRVLAKPQNTAEVQKVQLTGEPVPMARCVSTGGRPPAQITWHSDLGGMPNTSQVPGFLSGTVTVTSLWILVPSSQVDGKNVTCKVEHESFEKPQLLTVNLTVYYPPEVSISGYDNNWYLGQNEATLTCDARSNPEPTGYNWSTTMGPLPPFAVAQGAQLLIRPVDKPINTTLICNVTNALGARQAELTVQVKEGPPSEHSGISRNGGGGSGGGIWELKKDVYVVELDWYPDAPGEMVVLTCDTPEEDGITWTLDQSSEVLGSGKTLTIQVKAAGDAGQYTCHKGGEVLSHSLLLLHKKEDGIWSTDILKDQKEPKNKTFLRCEAKNYSGRFTCWWLTTISTDLTFSVKSSRGSSDPQGVTCGAATLSAERVRGDNKEYEYSVECQEDSACPAAEESLPIEVMVDAVHKLKYENYTSSFFIRDIIKPDPPKNLQLKPLKNSRQVEVSWEYPDTWSTPHSYFSLTFCVQVQGKSKREKKDRVFTDKTSATVICRKNASISVRAQDRYYSSSWSEWASVPCSGGGGSGGGSGGGGSRNLPVATPDPGMFPCLHHSQNLLRAVSNMLQKARQTLEFYPCTSEEIDHEDITKDKTSTVEACLPLELTKNESCLNSRETSFITNGSCLASRKTSFMMALCLSSIYEDLKMYQVEFKTMNAKLLMDPKRQIFLDQNMLAVIDELMQALNFNSETVPQKSSLEEPDFYKTKIKLCILLHAFRIRAVTIDRVMSYLNASGGGGSGGGDKTHTCPPCPAPEDEGGPSVFLFPPKPKDTLMISRTPEVTCVVVDVSHEDPEVKFNWYVDGVEVHNAKTKPREEQYNSTYRVVSVLTVLHQDWLNGKEYKCKVSNKALPAPIEKTISKAKGQPREPQVYVYPPSREEMTKNQVSLTCLVKGFYPSDIAVEWESNGQPENNYKTTPPVLDEDGSFALVSKLTVDKSRWQQGNVFSCSVMHEALHNHYTQKSLSLSPGK
chain 2: WPPPGTGDVVVQAPTQVPGFLGDSVTLPCYLQVPNMEVTHVSQLTWARHGESGSMAVFHQTQGPSYSESKRLEFVAARLGAELRNASLRMFGLRVEDEGNYTCLFVTFPQGSRSVDIWLRVLAKPQNTAEVQKVQLTGEPVPMARCVSTGGRPPAQITWHSDLGGMPNTSQVPGFLSGTVTVTSLWILVPSSQVDGKNVTCKVEHESFEKPQLLTVNLTVYYPPEVSISGYDNNWYLGQNEATLTCDARSNPEPTGYNWSTTMGPLPPFAVAQGAQLLIRPVDKPINTTLICNVTNALGARQAELTVQVKEGPPSEHSGISRNGGGSGAPTSSSTKKTQLQLEHLRLDLEMILNGINNYKNPKLTDMLTFEFYMPKKATELKHLQCLERELKPLEEVLNLAQSKNFHLRPRDLISNINVIVLELKGSETTFMCEYADETATIVEFLNRWITFCTSIIRTLTGGGGSGGGDKTHTCPPCPAPEKKGGPSVFLFPPKPKDTLMISRTPEVTCVVVDVSHEDPEVKFNWYVDGVEVHNAKTKPREEQYNSTYRVVSVLTVLHQDWLNGKEYKCKVSNKALPAPIEKTISKAKGQPREPQVYVLPPSREEMTKNQVSLLCLVKGFYPSDIAVEWESNGQPENRYMTWPPVLDSDGSFFLYSKLTVDKSRWQQGNVFSCSVMHEALHNHYTQKSLSLSPGK
B2: IL-2(R38D/K43E/E61R/Q126T)/CD155-Fc/IL-12(E59A/F60A) (Fc fusion)
chain 1: WPPPGTGDVVVQAPTQVPGFLGDSVTLPCYLQVPNMEVTHVSQLTWARHGESGSMAVFHQTQGPSYSESKRLEFVAARLGAELRNASLRMFGLRVEDEGNYTCLFVTFPQGSRSVDIWLRVLAKPQNTAEVQKVQLTGEPVPMARCVSTGGRPPAQITWHSDLGGMPNTSQVPGFLSGTVTVTSLWILVPSSQVDGKNVTCKVEHESFEKPQLLTVNLTVYYPPEVSISGYDNNWYLGQNEATLTCDARSNPEPTGYNWSTTMGPLPPFAVAQGAQLLIRPVDKPINTTLICNVTNALGARQAELTVQVKEGPPSEHSGISRNGGGGSGGGDKTHTCPPCPAPEDEGGPSVFLFPPKPKDTLMISRTPEVTCVVVDVSHEDPEVKFNWYVDGVEVHNAKTKPREEQYNSTYRVVSVLTVLHQDWLNGKEYKCKVSNKALPAPIEKTISKAKGQPREPQVYVYPPSREEMTKNQVSLTCLVKGFYPSDIAVEWESNGQPENNYKTTPPVLDEDGSFALVSKLTVDKSRWQQGNVFSCSVMHEALHNHYTQKSLSLSPGKGGGGSGGGIWELKKDVYVVELDWYPDAPGEMVVLTCDTPEEDGITWTLDQSSEVLGSGKTLTIQVKAAGDAGQYTCHKGGEVLSHSLLLLHKKEDGIWSTDILKDQKEPKNKTFLRCEAKNYSGRFTCWWLTTISTDLTFSVKSSRGSSDPQGVTCGAATLSAERVRGDNKEYEYSVECQEDSACPAAEESLPIEVMVDAVHKLKYENYTSSFFIRDIIKPDPPKNLQLKPLKNSRQVEVSWEYPDTWSTPHSYFSLTFCVQVQGKSKREKKDRVFTDKTSATVICRKNASISVRAQDRYYSSSWSEWASVPCSGGGGSGGGSGGGGSRNLPVATPDPGMFPCLHHSQNLLRAVSNMLQKARQTLEFYPCTSEEIDHEDITKDKTSTVEACLPLELTKNESCLNSRETSFITNGSCLASRKTSFMMALCLSSIYEDLKMYQVEFKTMNAKLLMDPKRQIFLDQNMLAVIDELMQALNFNSETVPQKSSLEEPDFYKTKIKLCILLHAFRIRAVTIDRVMSYLNAS
chain 2: B1 chain 2 with R346L, E350Q, R458S
B3: IL-2(L18R/Q22E/R38D/K43E/E61R)/CD155-Fc/IL-12(E59A/F60A) (Fc fusion)
chain 1: B2 chain 1
chain 2: B1 chain 2 with T454Q, R458S
B4: CD155-Fc/IL-12(E59A/F60A) (IL-12 at C'), printed in Table 21 as IL-12(E59A/F60A)/CD155-Fc (Fc fusion)
chain 1: B2 chain 1
chain 2: WPPPGTGDVVVQAPTQVPGFLGDSVTLPCYLQVPNMEVTHVSQLTWARHGESGSMAVFHQTQGPSYSESKRLEFVAARLGAELRNASLRMFGLRVEDEGNYTCLFVTFPQGSRSVDIWLRVLAKPQNTAEVQKVQLTGEPVPMARCVSTGGRPPAQITWHSDLGGMPNTSQVPGFLSGTVTVTSLWILVPSSQVDGKNVTCKVEHESFEKPQLLTVNLTVYYPPEVSISGYDNNWYLGQNEATLTCDARSNPEPTGYNWSTTMGPLPPFAVAQGAQLLIRPVDKPINTTLICNVTNALGARQAELTVQVKEGPPSEHSGISRNGGGGSGGGDKTHTCPPCPAPEKKGGPSVFLFPPKPKDTLMISRTPEVTCVVVDVSHEDPEVKFNWYVDGVEVHNAKTKPREEQYNSTYRVVSVLTVLHQDWLNGKEYKCKVSNKALPAPIEKTISKAKGQPREPQVYVLPPSREEMTKNQVSLLCLVKGFYPSDIAVEWESNGQPENRYMTWPPVLDSDGSFFLYSKLTVDKSRWQQGNVFSCSVMHEALHNHYTQKSLSLSPGK

Columns and labels:
Experiment in all cases: cell-based or functional assay
[1] = molecular target: T1, human TIGIT on HEK-Blue reporter cells (human, UniProt Q495A1 22-244)
T1 sequence (looked up): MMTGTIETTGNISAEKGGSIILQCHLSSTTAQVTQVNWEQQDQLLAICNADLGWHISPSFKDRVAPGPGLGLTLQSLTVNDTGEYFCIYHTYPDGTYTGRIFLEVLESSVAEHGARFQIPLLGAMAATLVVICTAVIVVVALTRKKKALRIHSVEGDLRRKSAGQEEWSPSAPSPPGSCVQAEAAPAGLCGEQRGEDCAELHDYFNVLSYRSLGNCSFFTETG

[2] = molecular target: human IL-12 receptor complex (IL-12Rβ1 and IL-12Rβ2) (human, UniProt P42701 24-662; Q99665 24-862)
Sequence of human IL-12 receptor complex (IL-12Rβ1 and IL-12Rβ2) (Q99665 24-862, chain 2 of 2, other chains not shown): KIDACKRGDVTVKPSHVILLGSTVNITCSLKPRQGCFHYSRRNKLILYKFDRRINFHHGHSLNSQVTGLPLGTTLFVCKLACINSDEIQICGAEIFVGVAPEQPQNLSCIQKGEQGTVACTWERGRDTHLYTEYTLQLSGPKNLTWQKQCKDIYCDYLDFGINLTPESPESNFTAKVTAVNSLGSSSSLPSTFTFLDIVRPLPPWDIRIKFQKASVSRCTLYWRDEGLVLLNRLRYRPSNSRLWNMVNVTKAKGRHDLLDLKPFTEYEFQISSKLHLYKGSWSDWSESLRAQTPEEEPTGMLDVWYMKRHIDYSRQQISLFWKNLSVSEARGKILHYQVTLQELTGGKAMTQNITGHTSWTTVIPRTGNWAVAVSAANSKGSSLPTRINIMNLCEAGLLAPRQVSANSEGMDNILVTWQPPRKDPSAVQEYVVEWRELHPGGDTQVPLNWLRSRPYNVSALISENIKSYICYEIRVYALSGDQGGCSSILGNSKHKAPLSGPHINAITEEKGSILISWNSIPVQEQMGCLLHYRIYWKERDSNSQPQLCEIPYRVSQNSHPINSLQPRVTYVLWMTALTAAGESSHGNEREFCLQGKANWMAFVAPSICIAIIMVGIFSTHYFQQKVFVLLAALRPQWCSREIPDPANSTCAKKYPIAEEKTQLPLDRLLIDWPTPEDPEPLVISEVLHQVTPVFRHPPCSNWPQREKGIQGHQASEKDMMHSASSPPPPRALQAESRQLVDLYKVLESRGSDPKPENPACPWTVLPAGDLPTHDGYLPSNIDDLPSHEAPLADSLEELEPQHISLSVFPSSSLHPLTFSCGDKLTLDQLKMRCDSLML

[3] = molecular target: T2, human IL-2 receptor (IL-2Rα, IL-2Rβ, IL-2Rγ) (human, UniProt P01589 22-272; P14784 27-551; P31785 23-369)
T2 sequence (looked up) 1: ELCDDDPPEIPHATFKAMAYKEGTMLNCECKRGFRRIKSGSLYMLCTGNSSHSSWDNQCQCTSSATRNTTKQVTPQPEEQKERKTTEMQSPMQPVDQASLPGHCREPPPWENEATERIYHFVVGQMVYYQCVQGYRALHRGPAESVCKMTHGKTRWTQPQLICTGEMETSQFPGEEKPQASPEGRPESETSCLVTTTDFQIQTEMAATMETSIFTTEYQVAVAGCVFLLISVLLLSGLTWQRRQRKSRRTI
T2 sequence (looked up) 2: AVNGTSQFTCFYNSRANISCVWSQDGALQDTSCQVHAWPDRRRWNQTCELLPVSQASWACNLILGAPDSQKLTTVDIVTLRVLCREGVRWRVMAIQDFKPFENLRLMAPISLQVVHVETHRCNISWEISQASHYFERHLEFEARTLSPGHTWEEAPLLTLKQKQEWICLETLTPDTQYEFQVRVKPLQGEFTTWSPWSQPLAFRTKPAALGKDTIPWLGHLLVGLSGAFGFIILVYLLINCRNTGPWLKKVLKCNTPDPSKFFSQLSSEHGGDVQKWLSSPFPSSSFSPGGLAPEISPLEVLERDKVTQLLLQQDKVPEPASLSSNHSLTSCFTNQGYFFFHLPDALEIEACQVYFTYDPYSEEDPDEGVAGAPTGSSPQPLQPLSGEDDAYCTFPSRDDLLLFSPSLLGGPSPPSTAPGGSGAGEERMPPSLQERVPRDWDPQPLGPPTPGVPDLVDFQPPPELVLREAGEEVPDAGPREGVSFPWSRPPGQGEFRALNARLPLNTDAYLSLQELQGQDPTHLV
T2 sequence (looked up) 3: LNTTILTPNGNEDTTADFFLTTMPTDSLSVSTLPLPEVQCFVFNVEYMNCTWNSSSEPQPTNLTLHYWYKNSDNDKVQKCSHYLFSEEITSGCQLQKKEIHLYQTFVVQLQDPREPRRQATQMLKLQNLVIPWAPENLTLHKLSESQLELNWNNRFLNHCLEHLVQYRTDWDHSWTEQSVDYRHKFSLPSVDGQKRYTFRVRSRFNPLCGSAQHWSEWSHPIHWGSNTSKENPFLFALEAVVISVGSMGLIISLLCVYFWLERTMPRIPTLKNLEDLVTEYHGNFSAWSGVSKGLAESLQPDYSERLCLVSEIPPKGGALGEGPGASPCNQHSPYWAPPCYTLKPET

| Binder | IL-2 signal transduction, HEK-IL-2-TIGIT [1] | IL-12 signal transduction, HEK-IL-12-TIGIT [1] | IL-12 signal transduction, HEK-IL-12 [2] | IL-2 signal transduction, HEK-IL-2 [3] |
| --- | --- | --- | --- | --- |
| B1 | < 0.1% | 15% | < 0.2% | < 0.1% |
| B2 | 28% | 32% | 2% | 3% |
| B3 | 81% | 42% | 1% | 15% |
| B4 | < 0.1% | 35% | 2% | < 0.1% |

— US20240392004A1 (IMMUNOWAKE, published 2024)
